The text below walks through data of PMC7117682 (2020).

The experiment has as its target CD47 naturally expressed on CD47(+) Jurkat T lymphoma cells (human (endogenous in Jurkat), UniProt Q08722 19-323). Kind of experiment: FACS.

CD47 naturally expressed on CD47(+) Jurkat T lymphoma cells, sequence (Q08722 19-323): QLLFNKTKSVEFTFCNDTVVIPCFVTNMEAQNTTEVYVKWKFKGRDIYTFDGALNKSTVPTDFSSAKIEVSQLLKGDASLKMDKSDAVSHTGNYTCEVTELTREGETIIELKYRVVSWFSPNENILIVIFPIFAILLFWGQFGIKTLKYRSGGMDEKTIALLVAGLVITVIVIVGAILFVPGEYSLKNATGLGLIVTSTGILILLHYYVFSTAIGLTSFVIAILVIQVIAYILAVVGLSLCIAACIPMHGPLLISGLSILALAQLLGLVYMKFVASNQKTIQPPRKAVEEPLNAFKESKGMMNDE

B1: SIRPα-Avi-biotin (soluble, biotin-conjugated SIRPα d1 construct; allelic variant not stated for the experiment) (domain or fragment)
chain: EELQVIQPDKSVLVAAGETATLRCTATSLIPVGPIQWFRGAGPGRELIYNQKEGHFPRVTTVSDLTKRNNMDFSIRIGNITPADAGTYYCVKFRKGSPDDVEFKSG
modifications: biotin (biotin-conjugated, SIRPα-Avi-biotin)
Molecule B1 had a 50% effective concentration (EC50) of 2000 nM. This counts as single-digit micromolar.
